This note sets out measurements from publication PMC5435312, “DNA recognition by an RNA-guided bacterial Argonaute”.

In the data set the target is T1, MpAgo D516A (Marinitoga piezophila, UniProt H2J4R4 1-639, D516A).
T1 sequence: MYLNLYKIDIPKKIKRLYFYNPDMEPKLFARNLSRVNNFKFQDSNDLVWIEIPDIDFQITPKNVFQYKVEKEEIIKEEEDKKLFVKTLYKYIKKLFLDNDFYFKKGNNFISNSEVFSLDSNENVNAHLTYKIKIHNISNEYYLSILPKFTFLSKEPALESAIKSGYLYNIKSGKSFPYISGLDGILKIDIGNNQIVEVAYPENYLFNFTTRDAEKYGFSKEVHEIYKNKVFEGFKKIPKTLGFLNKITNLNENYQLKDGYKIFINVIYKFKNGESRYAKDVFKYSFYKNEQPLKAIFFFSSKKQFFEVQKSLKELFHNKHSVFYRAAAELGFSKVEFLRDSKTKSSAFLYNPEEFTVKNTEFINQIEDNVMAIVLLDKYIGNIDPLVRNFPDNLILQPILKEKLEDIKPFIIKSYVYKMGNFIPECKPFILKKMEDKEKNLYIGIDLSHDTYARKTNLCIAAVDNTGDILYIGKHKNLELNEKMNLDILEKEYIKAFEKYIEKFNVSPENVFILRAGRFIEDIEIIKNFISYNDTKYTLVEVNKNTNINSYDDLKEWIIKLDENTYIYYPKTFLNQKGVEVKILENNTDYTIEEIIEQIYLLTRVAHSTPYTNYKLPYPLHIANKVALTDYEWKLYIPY
Put plainly: X-ray crystallography (3.2 A); 0.1 M MES pH 7.0, 275 mM KI, 27% PEG 4000; guide RNA 1.2x, target equimolar to guide; Crystallization: 0.1 M MES pH 7.0, 275 mM KI, 27% (w/v) PEG 4000, 18 C; protein about 3.5 mg/ml in complex; mismatch guides assayed by cleavage only (no binding read-out). To be noted: protein: recombinant; tags: His10-Asn10-MBP tag removed by PreScission protease; 21 nt guide and 21 nt target, fully complementary; in the complex guide nt 1 and target C21 are unpaired, 20 bp modeled.

B1: 21 nt RNA guide / 21 nt DNA target (DNA:RNA)
RNA: GGUACAACCUACUACCUCAUU
DNA: AATGAGGTAGTAGGTTGTACC
modifications: 5'-OH RNA guide; 5'-phosphate DNA target
Take B1: the binding result was “binds”.
